Data from article PMC4714197, “The Tomato Nucleotide-binding Leucine-rich Repeat Immune Receptor I-2 Couples DNA-binding to Nucleotide-binding Domain Nucleotide Exchange” (The Journal of Biological Chemistry, 2015).

Legend:
I-2_1–519 [1] = target: T1, I-2_1–519 (Solanum lycopersicum, UniProt Q9XET3); test: EMSA of […]-dsDNA binding with nucleotide; details: 5 uM ADP, 10 mM ZnCl2, pH 8.0, on ice; ADP lowers DNA binding
T1 construct: gene I2; CC-NB-ARC domains, residues 1-519, LRR lacking

I-2_1–519 [2] = target: T2, I-2_1–519 (Solanum lycopersicum, UniProt Q9XET3, S233F); test: EMSA of […]-dsDNA binding with nucleotide; details: 5 uM ADP compared with 5 uM ATP; 10 mM ZnCl2, pH 8.0, on ice
T2 construct: gene I2; CC-NB-ARC domains, residues 1-519, LRR lacking

I-2_1–519 [3] = target: T1, I-2_1–519; test: ATPase assay, 3H-ATP, TLC; type: biochemical; details: 5 uM ATP, 10 mM MgCl2, pH 7.5, 37 °C; without and with 2 uM DNA; labelled compound
[4] = test system: R1-NB (NB subdomain of Os02g_25900) (Oryza sativa (rice)); test: EMSA; details: apparent Kd; EMSA: 20 mM Tris-HCl pH 8.0, 60 mM NaCl, 2 mM EDTA, 1 mM DTT, 10% glycerol, 0.1 mg/ml BSA, 0.15 nM nucleic acid, 20 min on ice (nucleotide tests + 10 mM ZnCl2 …)
[5] = target: T3, I-2 CC-NB-ARC WT (I-2 1-519) (Solanum lycopersicum (tomato), UniProt Q9XET3 1-519); test: fluorescence anisotropy; EMSA: 20 mM Tris-HCl pH 8.0, 60 mM NaCl, 2 mM EDTA, 1 mM DTT, 10% glycerol, 0.1 mg/ml BSA, 0.15 nM nucleic acid, 20 min on ice (nucleotide tests + 10 mM ZnCl2 as printed); anisotropy: 6.7 mM Tris-HCl pH 8.0, 3.3 mM Na acetate, 2 mM EDTA, 10 nM DNA, 25 C; P1: 20 mM Tris acetate pH 7.5, 10 mM Mg acetate, 100 mM NaCl, 37 C; details: protein: recombinant; label: fluorescein end label on SS1s; blunt
T3 sequence: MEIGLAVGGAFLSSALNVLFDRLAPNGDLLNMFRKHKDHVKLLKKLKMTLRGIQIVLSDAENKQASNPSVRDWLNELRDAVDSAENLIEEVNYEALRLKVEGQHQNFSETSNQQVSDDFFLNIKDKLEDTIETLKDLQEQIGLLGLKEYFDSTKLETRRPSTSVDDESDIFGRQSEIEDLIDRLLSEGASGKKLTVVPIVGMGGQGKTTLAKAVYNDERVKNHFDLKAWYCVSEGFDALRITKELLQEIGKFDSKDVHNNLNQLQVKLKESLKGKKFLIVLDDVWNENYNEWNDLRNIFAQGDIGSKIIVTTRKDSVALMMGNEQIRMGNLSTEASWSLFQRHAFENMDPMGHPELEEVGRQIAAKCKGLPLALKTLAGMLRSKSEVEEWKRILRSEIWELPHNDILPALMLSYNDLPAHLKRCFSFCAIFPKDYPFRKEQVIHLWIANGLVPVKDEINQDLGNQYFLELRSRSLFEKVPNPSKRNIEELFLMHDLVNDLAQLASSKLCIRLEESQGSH

I-2 CC-NB-ARC K207R [6] = target: T4, I-2 CC-NB-ARC K207R (Solanum lycopersicum (tomato), UniProt Q9XET3 1-519, K207R); test: as above; details: protein: recombinant; label: fluorescein end label on SS1s; blunt
T4 sequence: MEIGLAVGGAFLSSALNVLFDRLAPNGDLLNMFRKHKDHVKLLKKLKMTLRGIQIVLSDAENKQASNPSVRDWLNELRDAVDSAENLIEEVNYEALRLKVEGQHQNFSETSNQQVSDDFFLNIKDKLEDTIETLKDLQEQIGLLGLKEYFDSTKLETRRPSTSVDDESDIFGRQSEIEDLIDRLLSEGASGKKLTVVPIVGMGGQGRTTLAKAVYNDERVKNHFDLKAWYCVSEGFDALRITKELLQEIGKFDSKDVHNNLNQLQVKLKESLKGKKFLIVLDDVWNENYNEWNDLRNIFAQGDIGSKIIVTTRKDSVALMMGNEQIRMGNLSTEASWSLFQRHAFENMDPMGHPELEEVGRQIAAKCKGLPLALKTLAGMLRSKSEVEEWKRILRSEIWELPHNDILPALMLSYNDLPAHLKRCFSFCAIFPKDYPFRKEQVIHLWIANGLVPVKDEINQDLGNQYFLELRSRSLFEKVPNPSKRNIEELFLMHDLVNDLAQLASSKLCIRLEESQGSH

[7] = target: T3, I-2 CC-NB-ARC WT (I-2 1-519); test: EMSA; apparent Kd; EMSA: 20 mM Tris-HCl pH 8.0, 60 mM NaCl, 2 mM EDTA, 1 mM DTT, 10% glycerol, 0.1 mg/ml BSA, 0.15 nM nucleic acid, 20 min on ice (nucleotide tests + 10 mM ZnCl2 as printed); anisotropy: 6.7 mM Tris-HCl pH 8.0, 3.3 mM Na acetate, 2 mM EDTA, 10 nM DNA, 25 C; P1: 20 mM Tris acetate pH 7.5, 10 mM Mg acetate, 100 mM NaCl, 37 C; details: protein: recombinant, label: 32P end label
[8] = target: T3, I-2 CC-NB-ARC WT (I-2 1-519); test: EMSA; 5 uM ATP, 10 mM ZnCl2 (so in the source); EMSA: 20 mM Tris-HCl pH 8.0, 60 mM NaCl, 2 mM EDTA, 1 mM DTT, 10% glycerol, 0.1 mg/ml BSA, 0.15 nM nucleic acid, 20 min on ice (nucleotide tests + 10 mM ZnCl2 as printed); anisotropy: 6.7 mM Tris-HCl pH 8.0, 3.3 mM Na acetate, 2 mM EDTA, 10 nM DNA, 25 C; P1: 20 mM Tris acetate pH 7.5, 10 mM Mg acetate, 100 mM NaCl, 37 C; details: protein: recombinant; label: 32P end label; blunt
I-2 CC-NB-ARC S233F = target: T5, I-2 CC-NB-ARC S233F (Solanum lycopersicum (tomato), UniProt Q9XET3 1-519, S233F); test: EMSA; indistinguishable from WT; EMSA: 20 mM Tris-HCl pH 8.0, 60 mM NaCl, 2 mM EDTA, 1 mM DTT, 10% glycerol, 0.1 mg/ml BSA, 0.15 nM nucleic acid, 20 min on ice (nucleotide tests + 10 mM ZnCl2 as printed); anisotropy: 6.7 mM Tris-HCl pH 8.0, 3.3 mM Na acetate, 2 mM EDTA, 10 nM DNA, 25 C; P1: 20 mM Tris acetate pH 7.5, 10 mM Mg acetate, 100 mM NaCl, 37 C; details: protein: recombinant; label: 32P end label; blunt
T5 sequence: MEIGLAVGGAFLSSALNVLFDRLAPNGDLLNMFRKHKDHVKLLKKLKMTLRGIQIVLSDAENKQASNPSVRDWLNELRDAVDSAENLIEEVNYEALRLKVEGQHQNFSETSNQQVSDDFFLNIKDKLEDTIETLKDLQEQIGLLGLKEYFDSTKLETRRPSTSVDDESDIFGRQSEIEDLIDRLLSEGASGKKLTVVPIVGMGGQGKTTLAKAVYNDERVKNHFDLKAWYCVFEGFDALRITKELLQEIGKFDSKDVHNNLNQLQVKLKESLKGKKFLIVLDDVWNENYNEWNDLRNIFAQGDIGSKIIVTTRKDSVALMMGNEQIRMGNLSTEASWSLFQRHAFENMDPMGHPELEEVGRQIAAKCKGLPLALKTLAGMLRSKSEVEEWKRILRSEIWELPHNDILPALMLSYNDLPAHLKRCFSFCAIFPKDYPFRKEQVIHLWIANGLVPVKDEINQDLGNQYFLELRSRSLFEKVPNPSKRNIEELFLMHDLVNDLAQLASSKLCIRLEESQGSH

I-2 CC-NB-ARC K207R [9] = target: T4, I-2 CC-NB-ARC K207R; test: EMSA; apparent Kd; EMSA: 20 mM Tris-HCl pH 8.0, 60 mM NaCl, 2 mM EDTA, 1 mM DTT, 10% glycerol, 0.1 mg/ml BSA, 0.15 nM nucleic acid, 20 min on ice (nucleotide tests + 10 mM ZnCl2 as printed); anisotropy: 6.7 mM Tris-HCl pH 8.0, 3.3 mM Na acetate, 2 mM EDTA, 10 nM DNA, 25 C; P1: 20 mM Tris acetate pH 7.5, 10 mM Mg acetate, 100 mM NaCl, 37 C; details: protein: recombinant; label: 32P end label; blunt

Nc1ncnc2c1ncn2[C@@H]1O[C@H](COP(=O)(O)OP(=O)(O)O)[C@@H](O)[C@H]1O [ADP]
ratio of DNA binding with ADP vs with ATP or no nucleotide (I-2_1–519 [1]): ~ 0.65
% DNA binding with ADP relative to ATP (I-2_1–519 [2]): 61 ± 7%

Nc1ncnc2c1ncn2[C@@H]1O[C@H](COP(=O)(O)OP(=O)(O)OP(=O)(O)O)[C@@H](O)[C@H]1O [ATP]
ATPase activity (I-2_1–519 [3]): The CC-NB-ARC domain of I-2 has a very low intrinsic ATPase activity in vitro

UGGGUCAACGUGGGCAAAGAUGUCCUAGCAAUGUAAUCGUCUAUGACGUU [ssRNA sense strand (50 nt)]
Kd [4]: 12400 nM

TGGGTCAACGTGGGCAAAGATGTCCTAGCAATGTAATCGTCTATGACGTT (double strand) [SS1/SS2 dsDNA (50 bp)]
Kd [4]: 2750 nM

TGGGTCAACGTGGGCAAAGATGTCCTAGCAATGTAATCGTCTATGACGTT [SS1 ssDNA (50 nt)]
Kd [4]: 3340 nM

B1: SS1s/SS2s dsDNA (20 bp), anisotropy (dsDNA)
DNA 1: TGGGTCAACGTGGGCAAAGA
DNA 2: TCTTTGCCCACGTTGACCCA
Kd [5]: 320 ± 50 nM
Kd (I-2 CC-NB-ARC K207R [6]): 940 ± 90 nM

TGGGTCAACGTGGGCAAAGATGTCCTAGCAATGTAATCGTCTATGACGTT (ssDNA) [SS1 ssDNA (50 nt)]
Kd ([7]; single strand): 150 ± 10 nM

B2: SS1/SS2 dsDNA (50 bp) (dsDNA)
DNA 1: TGGGTCAACGTGGGCAAAGATGTCCTAGCAATGTAATCGTCTATGACGTT
DNA 2: AACGTCATAGACGATTACATTGCTAGGACATCTTTGCCCACGTTGACCCA
binding signal [8]: ~1 ratio to no nucleotide
binding result (I-2 CC-NB-ARC S233F): binds
Kd ([7]; blunt): 220 ± 20 nM
Kd (I-2 CC-NB-ARC K207R [9]): 230 ± 10 nM
